The assay deals with SARS-CoV S-6P protein (SARS-CoV; strain of S-6P  …, UniProt P59594, stabilised). The assay can be described thus: cryo-EM structure.

B1: antigen-binding fragment (Fab) of VacW-209 (Fab, V domains shown)
VH: QVQLVESGGGVVQPGRSLRLSCAASGFTFSSIAMHWVRQAPGKGLEWVAVMSFDGSIKYYGDSVKGRFTISRDNSKSTLYLQMNSLRAEDTAVYYCARGVQGYYDRSGYYNLDYNYGMDVWGQGTTVTVSS
VL: QSVLTQPPSVSGAPGQRVTISCTGSSSNIGAGYDVHWYQQLPGTAPKLLIYGNSNRPSGVPDRFSGSKSGTSASLAITGLQAEDEADYYCQSYDSSLSGWVFGGGTKLTVL
In the case of B1, the “stoichiometry N” value turned out to be 3 Fabs per spike trimer.

The values above are taken from paper doi:10.1101/2022.01.19.476892 (bioRxiv, 2022).
